“And” between values parts separate entries of the source, which are not always exact repeats. Equal entries are not always repeated. Where a SMILES comes first, the peptide text is derived from it.
Assays:
WT PAD4 = target: T1, WT PAD4 (Homo sapiens, UniProt Q9UM07); test: Thermal shift assay with GSK199, wild-type PAD4; assay type: binding; details: GSK199 10 μM, EXPI293F lysate
T1 construct: FLAG (N); His tag (C); expressed in transfected cells; host or cells: EXPI293F
Protocol: (§1) A 50 μL reaction mixture (EXPI293F lysate containing overexpressed wild-type PAD4 (1.5 mg/mL) or R374Cit mutant (2 mg/mL), 1×PBS and DMSO (1% final)) was heated at various temperatures (25, 40, 50, 60, 65, 70, 75, 85 and 90° C.) for 5 min followed by flash freezing with liquid nitrogen. The samples were thawed and the precipitated proteins were separated by centrifugation (15000 rpm, 30 min) at 4° C. 40 μL of the supernatant was mixed with 10 μL of 5×SDS-PAGE loading dye and the mixture was boiled at 95° C. for 10 min. The proteins were separated by SDS-PAGE using a 4-20% gradient gel and the soluble fractions of PAD4 were quantitated by western blot analysis using a rabbit polyclonal anti-PAD4 antibody. This assay was also performed separately in the presence of CaCl2 (1 mM final) and a PAD4-selective ligand, GSK199 (10 μM final). For these assays, the reaction mixture was incubated with CaCl2 or GSK199 at room temperature for 5 min before heating up at different temperatures. All the reactions were performed at least in duplicate.

R374Cit PAD4 = test: Thermal shift assay with GSK199, R374Cit PAD4; assay type: binding; details: GSK199 10 μM
Protocol: as §1

[1] = Solubility of decaged peptide observed during SM70 decaging; assay type: physicochemical; details: decaged peptide from SM70; turbid even in 1:1 acetonitrile/PBS
Protocol: FIG. 10. (A) Decaging of SM70, a PAD4-derived peptide (residues 363-372 with SM60 at the 372 position. Prolines at 365 and 371 positions were replaced with W and A, respectively, and a lysine residue was added to the C-terminus for ease of synthesis.). (B) HPLC chromatogram of SM70 before and after 5 min of 365 nm irradiation. […] Even after performing the reaction in 1:1 acetonitrile/PBS, the solution became turbid upon the formation of the decaged peptide. Assay condition: 200 μM SM70, 2 mM DTT, 1:1 acetonitrile/PBS (pH 7.4). (C) ESI mass spectrum of the citrulline-containing peptide (decaged product).

HEK293T cells = test: Cytotoxicity of PAD4 expression in HEK293T cells (CellTiter-Blue); assay type: cell-based
Protocol: HEK293T cells were seeded (2×10^4 cells/well) on 96-well plate and were allowed to grow in DMEM (supplemented with 10% heat-inactivated fetal bovine serum, 100 units/mL penicillin, 100 μg/mL streptomycin) for 48 h. Cells were then transfected with appropriate plasmids (120 ng PAD4 plasmid and 80 ng pIDTSMART eRF1 E55D for each well) using Lipofectamine 2000 (500 ng for each well) in Opti-MEM medium (Gibco). After 5 h, the medium was changed to DMEM and DMSO (for WT PAD4) or SM60 (0.25, […] and 1 mM for R374Cit PAD4) was added. Cells were then allowed to grow at 37° C. for 48 h. Cell viability was measured before and after photodecaging (by UV treatment for 3 min) using CellTiter-Blue® (Promega) by following the manufacturer's protocol. Untransfected cells served as the control. All the experiments were performed in triplicate.

[2] = Michaelis-Menten kinetics of wild-type and mutant PAD4 (COLDER assay); assay type: biochemical; details: substrate BAEE, 10 mM CaCl2, pH 7.4, 37° C.
Protocol: PAD4 (50 nM final for wild-type, 75 nM final for R372Cit, and 100 nM final for R374Cit) was added to a pre-warmed (10 min, 37° C.) reaction mixture (60 μL final) containing various concentrations of BAEE (0, 0.5, 1, 2.5, 5 and 10 mM), CaCl2 (10 mM), TRIS-HCl (100 mM, pH 7.4), NaCl (50 mM) and DTT (2 mM). This mixture was incubated at 37° C. for 45 min (for wild-type), 90 min (for R374Cit) and 120 min (for R372Cit) followed by quenching with liquid nitrogen. The rate of citrulline formation at various BAEE concentrations was quantified with the COLDER assay. The rates were plotted against the BAEE concentration and were fit to the Michaelis-Menten equation using Graphpad Prism. All the reactions were performed at least in duplicate.

[3] = Calcium-dependence of wild-type PAD4 (COLDER assay); assay type: biochemical; details: 10 mM BAEE, pH 7.4, 37° C.
Protocol: PAD4Bac (purified from bacterial expression system) and PAD4Mam (purified from mammalian expression system) (6 μL of 0.5 μM stock, 50 nM final) were added to separate pre-warmed (10 min, 37° C.) reaction mixtures (60 μL final) containing BAEE (10 mM), various concentrations of CaCl2 (0, 0.25, 0.5, 1, 2.5, 5 and 10 mM), TRIS-HCl (100 mM, pH 7.4), NaCl (50 mM) and DTT (2 mM). This mixture was incubated at 37° C. for 45 min followed by flash freezing with liquid nitrogen. The production of citrulline at various concentration of CaCl2 by PAD4 was quantified with the COLDER assay. (Tanikawa, et al. 2012 Nat. Commun. 3, 676; Zhang, et al. 2012 Proc. Natl. Acad. Sci. USA 109, 13331-13336.)
The calcium-dependence of citrulline production by PAD4 was fit to the equation 2,
v=Vmax*[Ca^2+]^h/(K0.5^h+[Ca^2+]^h) (2)
using Graphpad Prism, where v is the velocity of the reaction, Vmax is the maximum velocity of the reaction, [Ca^2+] is the concentration of calcium, h is the hill slope and K0.5 is the calcium concentration that gives half-maximal velocity. All the reactions were performed at least in duplicate.

histone H3 = test: Histone H3 citrullination in live HEK293T cells (western blot); assay type: cell-based; details: calcium and ionomycin, 3 h
Protocol: HEK293T cells were seeded (4×10^5 cells/well) on 6-well plates and were allowed to grow in DMEM (supplemented with 10% heat-inactivated fetal bovine serum, 100 units/mL penicillin, 100 μg/mL streptomycin) for 48 h. Cells were then transfected with appropriate plasmids (3 μg PAD4 plasmid and 2 μg pIDTSMART eRF1 E55D for each well) using Lipofectamine 2000 (12.5 μg for each well) in Opti-MEM medium (Gibco). After 5 h, the medium was changed to DMEM and DMSO (for WT PAD4) or SM60 (1 mM for R374Cit PAD4) was added. Cells were then allowed to grow at 37° C. for 48 h. Cells were washed with serum-free DMEM (supplemented with 100 units/mL penicillin, […] streptomycin), resuspended in the same medium and were irradiated with 365 nm UV for 3 min. Then the cells were treated with CaCl2 (1 mM) and a combination of CaCl2 (1 mM) and ionomycin (5 μM) for 3 h at 37° C. After this, cells were lysed and the lysates were analyzed by Western blotting using anti-histone H3 citrulline (R2,8,17) and anti-histone H3 primary antibodies. PAD4 expression was quantified by using an anti-PAD4 primary antibody. Band intensities for citrullinated histone H3 were normalized against those for histone H3 and PAD4 using the following algorithm,
Normalized histone H3Cit=[H3Cit/(H3_33 PAD4)]×10^6
All the experiments were performed in triplicate.

[4] = Thermal shift assay, melting temperature of PAD4 in EXPI293F lysate; assay type: physicochemical; details: no ligand
Protocol: as §1

T1 sequence (Q9UM07 whole entry G112A): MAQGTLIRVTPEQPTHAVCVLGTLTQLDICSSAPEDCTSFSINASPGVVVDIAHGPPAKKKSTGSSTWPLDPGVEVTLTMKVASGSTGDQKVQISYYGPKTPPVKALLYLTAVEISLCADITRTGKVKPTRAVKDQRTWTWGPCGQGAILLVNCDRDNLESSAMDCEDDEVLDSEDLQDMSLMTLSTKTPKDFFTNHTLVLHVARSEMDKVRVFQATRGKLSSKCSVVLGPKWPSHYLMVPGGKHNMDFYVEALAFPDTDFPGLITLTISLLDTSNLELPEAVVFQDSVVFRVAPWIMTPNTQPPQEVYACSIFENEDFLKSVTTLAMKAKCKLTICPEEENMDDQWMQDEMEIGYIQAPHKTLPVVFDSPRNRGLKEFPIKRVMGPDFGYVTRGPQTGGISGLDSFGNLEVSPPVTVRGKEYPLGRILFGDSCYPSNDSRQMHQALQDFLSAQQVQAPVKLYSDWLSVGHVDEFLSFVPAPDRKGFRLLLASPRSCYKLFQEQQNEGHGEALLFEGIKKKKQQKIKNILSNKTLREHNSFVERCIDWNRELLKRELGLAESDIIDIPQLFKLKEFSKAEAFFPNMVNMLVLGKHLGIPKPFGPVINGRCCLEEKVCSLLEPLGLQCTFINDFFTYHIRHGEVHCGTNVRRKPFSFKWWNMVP

CCn1c(-c2nc3cc(C(=O)N4CCCC(N)C4)cc(OC)c3n2C)cc2cccnc21 (stereo not shown) [GSK199]
effect on Tm of WT PAD4 (WT PAD4): increased the Tm of WT PAD4 | effect on Tm of R374Cit PAD4 (R374Cit PAD4; EXPI293F lysate): did not increase the Tm of the R374Cit mutant | binding to R374Cit mutant (R374Cit PAD4; inferred from thermal shift): binds poorly to the R374Cit mutant

CC(C)C[C@H](NC(=O)[C@@H](N)[C@@H](C)O)C(=O)N[C@@H](Cc1c[nH]c2ccccc12)C(=O)N[C@H](C(=O)N[C@H](C(=O)N[C@@H](Cc1ccccc1)C(=O)N[C@@H](CC(=O)O)C(=O)N[C@@H](CO)C(=O)N[C@@H](C)C(=O)N[C@@H](CCCNC(N)=O)C(=O)N[C@@H](CCCCN)C(=O)O)C(C)C)C(C)C [decaged product] (HELM PEPTIDE1{T.L.W.V.V.F.D.S.A.[Cit].K}$$$$V2.0)
solubility in aqueous buffer [1]: extremely low solubility in aqueous buffer

PAD4: Protein Arginine Deiminase 4 (WT and R374Cit) overexpressed in HEK293T cells
cytotoxicity of expression (HEK293T cells): does not cause any cytotoxicity

PAD4Bac: wild-type PAD4 purified from bacterial (E. coli) expression system
Km [2]: 700 ± 100 µM | kcat [2]: 3.4 ± 0.2 S^−1 | K0.5 (Ca^2+ concentration for half-maximal activity) [3]: 0.9 mM and 0.9 ± 0.10 mM

PAD4Mam: wild-type PAD4 purified from mammalian expression system (HEK293T), N-terminal FLAG and C-terminal His tag
Km [2]: 1100 ± 200 µM | kcat [2]: 3.7 ± 0.1 S^−1 | K0.5 (Ca^2+ concentration for half-maximal activity) [3]: 0.9 mM and 0.9 ± 0.05 mM

WT PAD4: wild-type Protein Arginine Deiminase 4
times more active than the R374Cit mutant for the citrullination of histone H3 (histone H3): 6 times | melting temperature (Tm) [4]: 62.9 °C

Source: patent US20240166594A1, “PHOTOCAGED CITRULLINE ANALOGS AND METHODS FOR SITE-SPECIFIC INCORPORATION OF CITRULLINE INTO PROTEINS” (University of Massachusetts, priority 2021, published 2024)
